Measurements published in the supplement of paper PMC7125110.
± gives the standard error. Variants at the floor of the assay were thinned out.

B1: glmS ribozyme (parent)
chain: AUAAAAGCGCCAGAACUACAGAAAUGUAGUUGACGAGGAGGAGGUUUAUCGAAUUUUCGGCGGAUGCCUCCAAA

Key:
Settings in all cases: with glucosamine-6-phosphate
glucosamine-6-phosphate [1] = variants of: B1; experiment: self-cleavage kobs at 40 uM GlcN6P; higher = faster cleavage; RNA array
How it was run: (§1)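 On sequenced MiSeq chips, barcoded ribozyme variants were made in situ by E. coli RNA polymerase and followed at 37 °C through a hybridised Cy3 probe. Glucosamine-6-phosphate was flowed in at 40 μM to 10 mM in HEPES/KCl/Mg(OAc)2 buffer. Exponential fits to normalised per-tile medians gave kobs, and weighted Michaelis–Menten fits gave kcat and KM.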

glucosamine-6-phosphate [2] = variants of: B1; experiment: self-cleavage kobs at 640 uM GlcN6P; higher = faster cleavage; RNA array
How it was run: as §1

glucosamine-6-phosphate [3] = variants of: B1; experiment: self-cleavage kobs at 2500 uM GlcN6P; higher = faster cleavage; RNA array
How it was run: as §1

glucosamine-6-phosphate [4] = variants of: B1; experiment: self-cleavage kobs at 10000 uM GlcN6P; higher = faster cleavage; RNA array
How it was run: as §1

glucosamine-6-phosphate [5] = variants of: B1; experiment: self-cleavage kobs at 160 uM GlcN6P; higher = faster cleavage; RNA array
How it was run: as §1

Variant | self-cleavage kobs at 40 uM GlcN6P (glucosamine-6-phosphate [1]) [s⁻¹] | self-cleavage kobs at 640 uM GlcN6P (glucosamine-6-phosphate [2]) [s⁻¹] | self-cleavage kobs at 2500 uM GlcN6P (glucosamine-6-phosphate [3]) [s⁻¹] | self-cleavage kobs at 10000 uM GlcN6P (glucosamine-6-phosphate [4]) [s⁻¹] | self-cleavage kobs at 160 uM GlcN6P (glucosamine-6-phosphate [5]) [s⁻¹]
A36G A64U U65G | < 1e-05 | < 1e-05 | < 1e-05 | < 1e-05 | 
C8U G13C | < 1e-05 | < 1e-05 |  | < 1e-05 | < 1e-05
A6G C16G G29C A39G G43C U47G G51U C61A | < 1e-05 |  |  | < 1e-05 | 
C8U C11G C50U U56C U69G | 4.97e-05 ± 2.2e-05 |  |  |  | 
C10U A33G | < 1e-05 | < 1e-05 |  | < 1e-05 | < 1e-05
U49A A52G | < 1e-05 |  |  |  | 
U30C G44A | < 1e-05 | < 1e-05 |  | < 1e-05 | < 1e-05
A6G G35A | < 1e-05 | < 1e-05 | < 1e-05 | < 1e-05 | < 1e-05
G13U G35U | < 1e-05 | < 1e-05 | < 1e-05 | < 1e-05 | < 1e-05
C8U A64C | < 1e-05 | < 1e-05 | < 1e-05 |  | < 1e-05
G9U G41U | < 1e-05 | < 1e-05 | < 1e-05 | < 1e-05 | < 1e-05
C34U G37A | < 1e-05 |  | < 1e-05 | < 1e-05 | 
A6C U45C G63A | < 1e-05 |  | < 1e-05 |  | 
G38U A42U U49A G60U | < 1e-05 |  |  | < 1e-05 | 
G9A G13U C50G U57A | 0.000665 ± 0.00023 |  |  | 9.79e-05 ± 2e-05 | 
U30G A36G U54G | < 1e-05 |  |  | < 1e-05 | 
G32A G37C A42U | < 1e-05 |  |  |  | 
G62A A64C | < 1e-05 | < 1e-05 | < 1e-05 | < 1e-05 | < 1e-05
G40U U56C G59C | < 1e-05 |  |  | < 1e-05 | 
G38U A42C A53U | < 1e-05 |  |  |  | 
C8G U31A G41C | < 1e-05 |  |  |  | 
A33C A36G G62U G66A | < 1e-05 | < 1e-05 | < 1e-05 |  | 
C8G G60C | < 1e-05 |  |  | < 1e-05 | < 1e-05
G62U C70A | < 1e-05 |  |  |  | 
